Experimental data: patent US9176064B2, “Bisubstrate fluorescent probes for protein kinase CK2” (University of Tartu, priority 2012, dated 2015)
Where a SMILES comes first, the peptide text is derived from it. [ ]: non-standard residue; d: D form. The star is where a group is joined. X1 = O=C(CCCCCCCn1cnc2c(Br)c(Br)c(Br)c(Br)c21)*

Assays:
Experiment in all cases: Kinase panel residual activity
Type in all cases: biochemical
Conditions in all cases: compound at 1 micromolar
DDR2 = target: T1, DDR2 (Homo sapiens, UniProt Q16832)
T1 sequence (Q16832 22-855): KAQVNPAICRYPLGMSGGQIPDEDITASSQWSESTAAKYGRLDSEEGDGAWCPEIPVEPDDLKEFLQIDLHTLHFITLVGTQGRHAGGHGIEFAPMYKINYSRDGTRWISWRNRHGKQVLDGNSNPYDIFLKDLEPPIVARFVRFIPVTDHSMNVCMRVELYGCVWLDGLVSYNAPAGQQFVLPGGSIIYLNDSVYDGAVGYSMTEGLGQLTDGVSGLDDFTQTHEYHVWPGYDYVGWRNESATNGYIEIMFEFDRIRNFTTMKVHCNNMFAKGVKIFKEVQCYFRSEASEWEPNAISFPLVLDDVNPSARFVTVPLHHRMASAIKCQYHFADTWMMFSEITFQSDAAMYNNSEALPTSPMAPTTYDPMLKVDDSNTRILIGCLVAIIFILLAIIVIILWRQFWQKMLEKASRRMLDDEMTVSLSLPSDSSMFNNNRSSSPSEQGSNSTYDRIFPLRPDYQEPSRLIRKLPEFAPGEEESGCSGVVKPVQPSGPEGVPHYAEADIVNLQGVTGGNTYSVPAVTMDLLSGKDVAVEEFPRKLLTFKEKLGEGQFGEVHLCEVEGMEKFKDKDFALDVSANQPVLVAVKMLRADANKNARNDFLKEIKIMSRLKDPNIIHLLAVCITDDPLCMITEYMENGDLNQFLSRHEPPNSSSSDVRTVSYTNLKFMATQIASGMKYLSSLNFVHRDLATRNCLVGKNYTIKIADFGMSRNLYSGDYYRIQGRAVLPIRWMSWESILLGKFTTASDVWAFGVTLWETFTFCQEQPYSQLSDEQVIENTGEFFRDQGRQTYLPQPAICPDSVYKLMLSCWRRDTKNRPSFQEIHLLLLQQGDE

EPH-B3 = target: T2, EPH-B3 (Homo sapiens, UniProt P54753)
T2 sequence (P54753 34-998): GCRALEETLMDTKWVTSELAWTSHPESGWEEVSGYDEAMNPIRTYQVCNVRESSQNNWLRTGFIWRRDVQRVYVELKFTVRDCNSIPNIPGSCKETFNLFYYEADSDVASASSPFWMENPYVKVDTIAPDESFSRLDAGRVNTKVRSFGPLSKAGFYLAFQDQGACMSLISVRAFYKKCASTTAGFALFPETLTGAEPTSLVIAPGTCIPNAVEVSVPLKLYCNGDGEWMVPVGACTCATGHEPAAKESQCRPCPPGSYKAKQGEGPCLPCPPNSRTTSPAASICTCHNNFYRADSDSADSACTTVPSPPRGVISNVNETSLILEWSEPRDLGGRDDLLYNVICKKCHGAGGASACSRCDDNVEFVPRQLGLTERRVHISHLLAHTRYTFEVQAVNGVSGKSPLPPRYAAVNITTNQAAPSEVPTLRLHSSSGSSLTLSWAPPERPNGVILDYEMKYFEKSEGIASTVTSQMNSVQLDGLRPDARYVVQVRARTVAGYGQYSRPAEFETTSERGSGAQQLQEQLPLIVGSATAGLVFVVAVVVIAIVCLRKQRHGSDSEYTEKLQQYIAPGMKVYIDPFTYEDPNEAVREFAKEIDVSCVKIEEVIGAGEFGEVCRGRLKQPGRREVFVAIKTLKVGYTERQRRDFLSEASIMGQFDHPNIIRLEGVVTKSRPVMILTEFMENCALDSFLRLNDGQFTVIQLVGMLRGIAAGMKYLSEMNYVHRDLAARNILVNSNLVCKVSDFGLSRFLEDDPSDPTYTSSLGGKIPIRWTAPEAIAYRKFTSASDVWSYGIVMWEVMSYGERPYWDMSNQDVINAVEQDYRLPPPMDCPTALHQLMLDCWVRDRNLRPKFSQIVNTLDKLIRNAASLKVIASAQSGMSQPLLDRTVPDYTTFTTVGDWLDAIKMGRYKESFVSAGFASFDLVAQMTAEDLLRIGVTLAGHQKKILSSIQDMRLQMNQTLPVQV

TGFBR1 = target: T3, TGFBR1 (Homo sapiens, UniProt P36897)
T3 sequence (P36897 34-503): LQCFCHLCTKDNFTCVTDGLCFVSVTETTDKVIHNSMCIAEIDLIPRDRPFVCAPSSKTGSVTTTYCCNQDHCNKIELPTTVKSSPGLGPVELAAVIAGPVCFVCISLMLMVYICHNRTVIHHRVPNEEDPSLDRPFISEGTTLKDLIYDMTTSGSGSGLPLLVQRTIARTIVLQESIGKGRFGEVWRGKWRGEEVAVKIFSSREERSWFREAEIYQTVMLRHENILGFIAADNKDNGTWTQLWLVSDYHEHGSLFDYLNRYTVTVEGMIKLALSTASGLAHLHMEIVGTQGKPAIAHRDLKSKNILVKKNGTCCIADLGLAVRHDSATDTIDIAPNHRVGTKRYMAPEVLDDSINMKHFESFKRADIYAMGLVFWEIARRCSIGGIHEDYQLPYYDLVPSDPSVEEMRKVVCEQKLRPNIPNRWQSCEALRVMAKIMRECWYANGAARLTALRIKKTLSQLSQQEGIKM

MARK3 = MARK3 (Homo sapiens, UniProt P27448)
PDK1 = target: T4, PDK1 (Homo sapiens, UniProt O15530)
T4 sequence (O15530 1-556): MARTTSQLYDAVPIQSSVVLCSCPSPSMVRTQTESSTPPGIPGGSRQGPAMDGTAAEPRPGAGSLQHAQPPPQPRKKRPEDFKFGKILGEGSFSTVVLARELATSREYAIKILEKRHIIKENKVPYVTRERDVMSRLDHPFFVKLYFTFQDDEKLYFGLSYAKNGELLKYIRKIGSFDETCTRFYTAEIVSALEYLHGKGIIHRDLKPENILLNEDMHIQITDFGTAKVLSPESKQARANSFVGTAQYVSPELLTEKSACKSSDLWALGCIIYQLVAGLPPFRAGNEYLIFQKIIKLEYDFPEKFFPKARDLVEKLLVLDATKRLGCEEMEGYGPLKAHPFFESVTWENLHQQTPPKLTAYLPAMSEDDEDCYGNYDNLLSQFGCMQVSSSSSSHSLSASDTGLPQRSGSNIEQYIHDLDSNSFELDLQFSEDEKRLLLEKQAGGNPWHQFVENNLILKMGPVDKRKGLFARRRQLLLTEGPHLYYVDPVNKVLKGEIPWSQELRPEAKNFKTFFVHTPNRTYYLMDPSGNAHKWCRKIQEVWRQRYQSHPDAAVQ

BRK = BRK (Homo sapiens, UniProt Q13882)
ERK5 = ERK5 (Homo sapiens, UniProt Q13164)
Chain of ERK5 (Q13164 whole entry, species assumed): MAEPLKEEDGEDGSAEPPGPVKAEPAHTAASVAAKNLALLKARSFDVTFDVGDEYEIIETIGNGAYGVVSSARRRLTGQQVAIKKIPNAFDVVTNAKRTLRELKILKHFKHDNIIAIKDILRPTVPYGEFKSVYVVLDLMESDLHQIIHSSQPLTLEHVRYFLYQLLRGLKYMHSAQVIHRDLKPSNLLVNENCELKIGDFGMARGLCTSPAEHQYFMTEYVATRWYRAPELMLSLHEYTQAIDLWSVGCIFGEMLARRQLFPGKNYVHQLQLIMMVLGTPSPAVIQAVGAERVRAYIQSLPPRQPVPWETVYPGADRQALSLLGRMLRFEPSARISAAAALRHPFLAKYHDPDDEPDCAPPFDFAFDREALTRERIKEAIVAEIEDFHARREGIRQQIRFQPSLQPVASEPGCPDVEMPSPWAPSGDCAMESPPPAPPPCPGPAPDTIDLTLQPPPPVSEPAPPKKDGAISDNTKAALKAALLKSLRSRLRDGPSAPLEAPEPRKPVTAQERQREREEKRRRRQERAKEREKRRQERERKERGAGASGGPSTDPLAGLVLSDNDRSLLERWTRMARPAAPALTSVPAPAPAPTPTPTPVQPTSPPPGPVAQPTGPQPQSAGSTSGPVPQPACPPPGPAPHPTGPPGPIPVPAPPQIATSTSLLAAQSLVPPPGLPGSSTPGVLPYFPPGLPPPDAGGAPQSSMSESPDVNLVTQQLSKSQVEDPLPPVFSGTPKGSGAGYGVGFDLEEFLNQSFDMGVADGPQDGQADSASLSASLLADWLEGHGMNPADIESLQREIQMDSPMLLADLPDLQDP

Chain of BRK (Q13882 whole entry, species assumed): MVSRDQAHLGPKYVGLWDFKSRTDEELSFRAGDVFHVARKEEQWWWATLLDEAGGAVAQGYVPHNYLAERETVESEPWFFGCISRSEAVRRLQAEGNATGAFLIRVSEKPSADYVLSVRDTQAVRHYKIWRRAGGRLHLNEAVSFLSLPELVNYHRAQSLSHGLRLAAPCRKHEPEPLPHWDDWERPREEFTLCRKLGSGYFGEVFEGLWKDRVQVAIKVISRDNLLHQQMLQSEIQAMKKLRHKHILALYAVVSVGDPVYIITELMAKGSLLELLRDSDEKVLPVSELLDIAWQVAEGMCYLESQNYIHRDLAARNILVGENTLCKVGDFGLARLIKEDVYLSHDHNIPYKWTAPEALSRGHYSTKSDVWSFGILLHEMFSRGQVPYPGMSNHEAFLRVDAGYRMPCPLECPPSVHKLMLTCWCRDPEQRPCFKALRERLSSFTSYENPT
Chain of MARK3 (P27448 whole entry, species assumed): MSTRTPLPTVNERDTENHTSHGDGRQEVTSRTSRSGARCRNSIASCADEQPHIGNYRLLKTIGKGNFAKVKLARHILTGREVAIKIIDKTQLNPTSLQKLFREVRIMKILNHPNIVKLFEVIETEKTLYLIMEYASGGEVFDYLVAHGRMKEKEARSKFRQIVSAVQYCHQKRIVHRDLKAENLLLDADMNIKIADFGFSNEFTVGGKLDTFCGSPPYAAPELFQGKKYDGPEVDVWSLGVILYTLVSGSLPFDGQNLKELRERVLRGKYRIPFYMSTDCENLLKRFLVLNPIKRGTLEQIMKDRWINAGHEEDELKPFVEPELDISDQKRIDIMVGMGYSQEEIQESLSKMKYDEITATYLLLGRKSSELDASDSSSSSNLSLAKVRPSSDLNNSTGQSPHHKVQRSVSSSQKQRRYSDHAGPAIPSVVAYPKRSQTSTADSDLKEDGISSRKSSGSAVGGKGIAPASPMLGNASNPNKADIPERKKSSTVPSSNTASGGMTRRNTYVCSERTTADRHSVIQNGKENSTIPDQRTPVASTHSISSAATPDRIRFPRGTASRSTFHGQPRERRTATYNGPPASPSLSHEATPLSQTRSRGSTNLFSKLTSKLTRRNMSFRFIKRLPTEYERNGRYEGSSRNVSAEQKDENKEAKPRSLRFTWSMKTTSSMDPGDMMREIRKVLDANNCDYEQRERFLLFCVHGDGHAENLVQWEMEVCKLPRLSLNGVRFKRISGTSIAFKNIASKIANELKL

**Q.** What does the source list for `NCCCC[C@H](NC(=O)[C@H](CC(=O)O)NC(=O)[C@H](CC(=O)O)NC(=O)[C@H](CC(=O)O)NC(=O)[C@H](CC(=O)O)NC(=O)[C@H](CC(=O)O)NC(=O)[C@@H](CC(=O)O)NC(=O)CCCCCCCn1cnc2c(Br)c(Br)c(Br)c(Br)c21)C(=O)O` [TBBI-OcA-(D-Asp)-(L-Asp)5-(L-Lys)-OH] (X1-[dD]DDDDDK-OH)?
**A.** remaining activity at 1 µM (DDR2): 109%; remaining activity at 1 µM (EPH-B3): 98%; remaining activity at 1 µM (TGFBR1): 98%; remaining activity at 1 µM (MARK3): 73%; remaining activity at 1 µM (PDK1): 86%; remaining activity at 1 µM (BRK): 113%; remaining activity at 1 µM (ERK5): 98%
